The values below come from patent US11180770B2, “HPPD variants and methods of use” (BASF Agricultural Solutions Seed US LLC, priority 2017, dated 2021).

Residue numbers refer to the chain shown, from its start.

In one data set the test system is soybean shoots. Kind of data set: selection of soybean shoots with tembotrione (greening/bleaching). Format: in vivo. To be noted: wild-type soybean shoots treated with tembotrione as selection marker. From the text:
Soybean transformation was achieved by using methods well known in the art, such as the one described using the Agrobacterium tumefaciens mediated transformation soybean half-seed explants using essentially the method described by Paz et al. (2006), Plant cell Rep. 25:206. Transformants were identified by using the HPPD inhibitor herbicide “tembotrione” as selection marker. The appearance of green shoots was observed, and documented as an indicator of tolerance to the HPPD inhibitor herbicide tembotrione.

The subject of data set [1] is HPPD polypeptides. As to the kind of experiment: coupled HPPD activity assay: turnover and residual turnover in crude extracts. Format: biochemical, Pseudomonas fluorescens.
Data set [2] concerns HPPD polypeptides. The data set is described as above. Conditions: FIG. 2. Format: biochemical, Pseudomonas fluorescens.
The test system of a further data set is T0 soybean plants. Kind of data set: greenhouse spray test, leaf area damage score. Format: in vivo. Conditions: transgenic soybean T0 events, five days after Cmpd. 1 at 300 g AI/ha. From the text: Tolerant green shoots were transferred to rooting media or grafted. Rooted plantlets were transferred to the greenhouse after an acclimation period. Plants containing the transgene were then sprayed with HPPD inhibitor herbicides, as for example with mesotrione at a rate of 300-600 g AI/ha, or with Cmpd. 1 (2-chloro-3-(methylsulfanyl)-N-(1-methyl-1H-tetrazol-5-yl)-4-(trifluoromethyl)-benzamide) at a rate of 150 g-300 g AI/ha supplemented with ammonium sulfate and methyl ester rapeseed oil. Five to ten days after the application, the symptoms due to the application of the herbicide were evaluated and compared to the symptoms observed on wild-type plants under the same conditions. For example, T0 soybean plants having a “plant expression cassette”, which includes an HPPD inhibitor tolerant HPPD polypeptide of the present invention, were tested towards the tolerance of Cmpd. 1. Prior greenhouse trials with the transgenic plants, soybean transformants were routinely analyzed for the expression and presence of the transgenes using the ELISA protein detection method (see detailed description under item D and H). Only plants recovering in the selection media and having a detectable HPPD transgene protein expression were used for the herbicide tolerance analysis. A DeVries Tracker Sprayer was calibrated prior to each spraying. The chemical formulation used for Cmpd. 1 was supplemented with ammonium sulfate and methylated rape seed oil. Spray tests were conducted with a concentration, which equals to 300 grams AI per hectare (300 g AI/ha).
In greenhouse trials, independent T0 soybean events containing an exemplary mutant HPPD polypeptide were sprayed with the HPPD inhibitor herbicide Cmpd. 1 (2-chloro-3-(methylsulfanyl)-N-(1-methyl-1H-tetrazol-5-yl)-4-(trifluoromethyl)benzamide) at the rate of 300 grams AI/ha, supplemented with ammonium sulfate and methyl ester rapeseed oil. Five days after the application, the leaf damaged area due to the HPPD inhibitor herbicide is scored in a scale from 0 (no damage) to 100 (complete bleaching). Under those conditions, the wild-type plants were completely bleached and their damage scores were in the 95-100 range.
Table 5 presents the distribution of the HPPD inhibitor herbicide damage score data as percentile for exemplary mutant HPPD inhibitor herbicide tolerant polypeptides (SEQ ID NOs). The percentiles normalize ranks of the damage score from an individual plant in a population. […] The median is the 50th percentile. Half the values had higher damage scores; half had lower damage scores. The value of the 75th and 90th percentile is the damage score where 75% and 90% of the soybean events had lower damage scores, respectively. The difference between the 75th and 25th percentile is called the interquartile range and a marker to quantify scattering in the population. All constructs had only one single cassette insertion in the soybean genome.

With `CS(=O)(=O)c1ccc(C(=O)C2C(=O)CCCC2=O)c(Cl)c1COCC(F)(F)F` [tembotrione, 2-[2-chloro-4-(methylsulfonyl)-3-[(2,2,2,-trifluoroethoxy)methyl]benzoyl]-1,3-cyclohexanedione], the “effect on wild-type soybean shoots” value in the data set on soybean shoots was “entirely bleached”.

B1: SEQ ID NO:1 (protein, listed as Pseudomonas fluorescens)
chain: MADLYENPMGLMGFEFIEFASPTPGTLEPIFEIMGFTKVATHRSKNVHLYRQGEINLILNNEPNSIASYFAAEHGPSVCGMAFRVKDSQKAYNRALELGAQPIHIDTGPMELNLPAIKGIGGAPLYLIDRFGEGSSIYDIDFVYLEGVERNPVGAGLKVIDHLTHNVYRGRMVYWANFYEKLFNFREARYFDIKGEYTGLTSKAMSAPDGMIRIPLNEESSKGAGQIEEFLMQFNGEGIQHVAFLTDDLVKTWDALKKIGMRFMTAPPDTYYEMLEGRLPDHGEPVDQLQARGILLDGSSVEGDKRLLLQIFSETLMGPVFFEFIQRKGDDGFGEGNFKALFESIERDQVRRGVLTAD
modifications: 4-hydroxyphenylpyruvate dioxygenase (HPPD; Pseudomonas fluorescens) (1)..(358)
For the molecule B1, the Residual turnover in the data set on HPPD polypeptides [1] (presence of 100 μM Cmpd. 1, high substrate concentration, changes in absorbance (OD) at 320 nm) worked out at 0.021. For the same molecule, in the data set with HPPD polypeptides [2], the “mode of inhibition by HPPD inhibitor herbicides (time-course of inhibition)” value was “slow and tight binding inhibitor”.

B2: SEQ ID NO: 70: mutant PfHPPD: 213K 268A 270S 315Q 335P 336H 337S 340V 344Q 345M (protein)
chain: B1 chain with R213K, P268A, T270S, T315Q, E335P, G336H, N337S, A340V, S344Q, I345M
modifications: mutant HPPD polypeptide
notes: mutant PfHPPD: 213K 268A 270S 315Q 335P 336H 337S 340V 344Q 345M
On to B2, for which the “turnover / residual turnover in the presence of Cmpd. 1 compared with a reference HPPD polypeptide, in words” value in the data set with HPPD polypeptides [1] (Cmpd. 1, comparison with the reference or parent polypeptide) is “increase significantly the turnover and the residual turnover”. Further, the “leaf area damage score, 25th percentile” value in the data set on T0 soybean plants (scale 0 (no damage) to 100 (complete bleaching)) is on record as 10.0. Also, in the data set on T0 soybean plants (scale 0-100), the “leaf area damage score, 75th percentile” value was found to be 25.0; the “leaf area damage score, 90th percentile” value is on record as 35.0; the “leaf area damage score, Median” value came to 15.0.
